Consider 4 molecules from publication PMC13626733, “Molecular basis of high-torque transmission of the Vibrio polar flagellar motor” (Protein & Cell, 2026).

Test in all cases: cryo-EM structure; polar flagellar motor-hook complex purified as a whole from V. alginolyticus KK148 ΔflgL; local refinements of the LPHT ring, hook, rod, export apparatus and MS ring; LPHT ring particles also obtained by disassembling the complex at reduced salt
Series [1] addresses FlgH (Vibrio alginolyticus (endogenous in strain KK148 ΔflgL)).
Series [2] has as its target FlgI (Vibrio alginolyticus (endogenous in strain KK148 ΔflgL)).
In series [3] the target is FlgT (Vibrio alginolyticus (endogenous in strain KK148 ΔflgL)).
Series [4] concerns the molecule itself.

On to FlgH (natural protein), for which the stoichiometry N (as a rule, the number of molecules, sites or subunits per partner or assembly) in series [1] is 26.
FlgI (natural protein): the stoichiometry N in series [2] worked out at 26.
As for FlgT (natural protein), the stoichiometry N in series [3] was determined as 26.

B1: FliF (natural protein, UniProt Q75N27 1-580, looked up)
chain: MADKSTDLTVTEGGSDGALVASSDVDVESQNPDLEERSASKFDMAVGDLDLLRQVVLVLSISICVALIVMLFFWVKEPEMRPLGAYETEELIPVLDYLDQQKINYKLDGNTISVESSEYNSIKLGMVRSGVNQATEAGDDILLQDMGFGVSQRLEQERLKLSRERQLAQAIEEMKQVRKARVLLALPKHSVFVRHNQEASASVFLTLSTGTNLKQQEVDSIVDMVASAVPGMKTSRITVTDQHGRLLSSGSQDPASAARRKEQELERSQEQALREKIDSVLLPILGYGNYTAQVDIQMDFSAVEQTRKRFDPNTPATRSEYALEDYNNGNMVAGIPGALSNQPPADASIPQDVAQMKDGSVMGQGSVRKESTRNFELDTTISHERKQTGTVARQTVSVAIKDRRQVNPDTGEVTYTPMSESEINAIRQVLIGTVGFDQGRGDLLNVLSVKFAEPEAEQLEEPPIWEHPNFSDWVRWFASALVIIVVVLVLVRPAMKKLLNPTSDDEDEMYGPDGLPIGADGETSLIGSDIESSELFEFGSSIDLPNLHKDEDVLKAVRALVANEPELAAQVVKNWMNDNG
notes: FliF, MS ring subunit of the polar flagellar motor, Vibrio alginolyticus; domains RBM2, RBM3, β-collar; extended peptide loops LA, LB, LC; 34 subunits form the MS ring; 23 RBM2 domains seen in the RBM2 subring; also called MS ring protein; FliF peptide loops LA, LB, LC; source: endogenous, purified within the polar flagellar motor-hook complex from V. alginolyticus KK148 ΔflgL
B1: in series [4], the “stoichiometry N” value is 34.
